Percent of total AKT in complex with Ack1 data for one substance are collected here from article PMC2841635.

The test concerns the target purified tagged Ack1 (HA-tagged Ack1 in methods and Fig. S1B; Myc-tagged Ack1 in the results) (UniProt Q07912). The experiment in a line: co-IP; in vitro binding assay: 50 nM of purified Ack and AKT in mRLB (25 mM Tris pH 7.5, 175 mM NaCl, 1% Triton X-100, 10% glycerol), 30 mins at room temperature, then anti-Ack1 antibodies and Protein-A-sepharose overnight at 4°C; IB with anti-AKT antibody.
UniProt Q07912, sequence (Q07912 whole entry): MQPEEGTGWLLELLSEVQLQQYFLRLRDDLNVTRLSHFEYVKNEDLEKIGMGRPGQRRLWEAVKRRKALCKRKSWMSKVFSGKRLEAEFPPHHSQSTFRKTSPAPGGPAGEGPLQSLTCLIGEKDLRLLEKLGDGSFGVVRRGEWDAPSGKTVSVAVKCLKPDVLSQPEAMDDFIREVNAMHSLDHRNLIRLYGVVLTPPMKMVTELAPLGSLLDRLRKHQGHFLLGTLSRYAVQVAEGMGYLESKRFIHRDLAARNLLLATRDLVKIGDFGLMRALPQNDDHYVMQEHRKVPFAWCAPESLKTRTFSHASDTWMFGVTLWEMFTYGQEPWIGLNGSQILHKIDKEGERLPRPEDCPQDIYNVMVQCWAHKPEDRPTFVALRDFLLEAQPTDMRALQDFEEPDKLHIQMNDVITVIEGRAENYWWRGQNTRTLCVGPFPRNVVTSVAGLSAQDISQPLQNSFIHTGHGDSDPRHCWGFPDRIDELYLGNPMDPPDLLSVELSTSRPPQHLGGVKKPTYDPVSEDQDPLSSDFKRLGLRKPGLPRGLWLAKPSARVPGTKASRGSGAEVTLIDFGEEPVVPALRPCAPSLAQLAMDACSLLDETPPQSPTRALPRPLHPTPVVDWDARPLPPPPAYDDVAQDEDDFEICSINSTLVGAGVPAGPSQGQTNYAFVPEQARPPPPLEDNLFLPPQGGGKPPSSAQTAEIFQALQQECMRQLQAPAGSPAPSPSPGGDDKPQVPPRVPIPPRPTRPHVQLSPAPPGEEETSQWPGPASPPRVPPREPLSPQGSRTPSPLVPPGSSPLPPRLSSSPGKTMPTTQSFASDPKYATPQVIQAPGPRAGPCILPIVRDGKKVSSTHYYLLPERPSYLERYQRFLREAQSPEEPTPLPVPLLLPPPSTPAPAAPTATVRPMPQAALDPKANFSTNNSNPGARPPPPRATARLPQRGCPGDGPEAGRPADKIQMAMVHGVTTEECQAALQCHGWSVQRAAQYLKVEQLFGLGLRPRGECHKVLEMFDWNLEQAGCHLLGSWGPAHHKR

In the case of “HA-tagged AKT expressed in HEK293T/HEK293 cells (from UniProt P31749 1-480) (enzyme)”, the percent of total AKT in complex with Ack1 amounted to 6.35%.
